Drawing on paper PMC10281268, this text covers fold less talin recovered than with T12 vinculin for one substance.

The experiment addresses GFP-tagged Y822F vinculin (chicken), expressed in 4T1 vinculin-knockout cells (chicken) (UniProt P12003). The experiment can be described thus: co-IP; GFP or GFP-tagged vinculins immunoprecipitated with GFP antibody and protein A/G agarose from lysates of 4T1 vinculin-knockout cells (EB or RIPA buffer), reducing SDS-PAGE, immunoblot for talin, paxillin or β-actin; in one panel cells pre-treated with 10 mM NAC for 1 h (paxillin with Y822C reduced, not significantly changed with wild type and Y822F).
Chain of UniProt P12003 (P12003 whole entry Y822F): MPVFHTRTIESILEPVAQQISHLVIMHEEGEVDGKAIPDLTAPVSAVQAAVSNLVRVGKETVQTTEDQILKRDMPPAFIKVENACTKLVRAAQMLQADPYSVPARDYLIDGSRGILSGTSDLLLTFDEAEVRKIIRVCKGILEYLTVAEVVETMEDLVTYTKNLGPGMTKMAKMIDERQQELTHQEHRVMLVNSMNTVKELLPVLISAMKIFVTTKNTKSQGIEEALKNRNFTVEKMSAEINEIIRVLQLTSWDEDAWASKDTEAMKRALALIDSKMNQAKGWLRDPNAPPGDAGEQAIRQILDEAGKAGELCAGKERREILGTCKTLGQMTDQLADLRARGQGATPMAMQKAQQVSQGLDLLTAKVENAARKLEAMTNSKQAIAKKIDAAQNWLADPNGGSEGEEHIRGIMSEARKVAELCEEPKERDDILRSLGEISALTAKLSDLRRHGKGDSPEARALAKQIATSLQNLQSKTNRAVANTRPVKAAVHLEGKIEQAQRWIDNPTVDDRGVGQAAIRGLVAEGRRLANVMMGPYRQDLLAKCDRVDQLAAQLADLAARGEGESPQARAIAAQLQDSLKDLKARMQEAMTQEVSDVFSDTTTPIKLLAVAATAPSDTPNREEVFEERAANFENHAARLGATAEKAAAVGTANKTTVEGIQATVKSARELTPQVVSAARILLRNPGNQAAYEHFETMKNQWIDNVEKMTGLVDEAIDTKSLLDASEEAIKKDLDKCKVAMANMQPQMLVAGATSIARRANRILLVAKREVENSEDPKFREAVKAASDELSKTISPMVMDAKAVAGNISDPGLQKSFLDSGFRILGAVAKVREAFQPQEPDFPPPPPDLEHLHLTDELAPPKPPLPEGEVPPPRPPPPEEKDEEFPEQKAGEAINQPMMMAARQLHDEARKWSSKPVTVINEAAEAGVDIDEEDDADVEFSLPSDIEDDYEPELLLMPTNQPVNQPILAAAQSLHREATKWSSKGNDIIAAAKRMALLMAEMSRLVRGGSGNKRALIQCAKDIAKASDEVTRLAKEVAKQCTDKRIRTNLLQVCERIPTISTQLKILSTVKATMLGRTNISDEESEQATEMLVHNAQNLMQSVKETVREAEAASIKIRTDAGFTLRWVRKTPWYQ

Regarding “talin (endogenous in 4T1 cells; the paper's 'talin' refers collectively to talin 1 and 2) (from UniProt P26039 1-2541) (natural protein)”, the fold less talin recovered than with T12 vinculin stood at 390 fold.
